Source: PMC3177189
Like-named read-outs stand apart in the source and are kept apart here.

Experiments:
EcNusB F122D = EcNusB F122D (Escherichia coli, UniProt P0A780 1-139, F122D); assay: ITC
[1] = target: T1, AaNusB;AaNusE (S10) loop deletion (Aquifex aeolicus;Aquifex aeolicus, UniProt O66530;O66430 1-148;1-46+=S+69-104, |internal_change); assay: crystal structure
T1 sequence 1: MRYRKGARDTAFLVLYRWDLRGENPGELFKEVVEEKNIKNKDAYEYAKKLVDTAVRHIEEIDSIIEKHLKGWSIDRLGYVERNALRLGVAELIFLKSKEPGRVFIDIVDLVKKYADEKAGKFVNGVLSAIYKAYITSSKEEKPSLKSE
T1 sequence 2: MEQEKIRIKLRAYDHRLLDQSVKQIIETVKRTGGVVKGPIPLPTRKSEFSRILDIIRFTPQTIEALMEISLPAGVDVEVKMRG

[2] = target: T1, AaNusB;AaNusE (S10) loop deletion; assay: crystal structure; remark: listed apart in the source
EcNusB wt = EcNusB wt (Escherichia coli, UniProt P0A780 1-139); assay: NMR

B1: EcBoxA (ssRNA)
RNA: UGCUCUUUAACA
B1: no binding (EcNusB F122D).

B2: AaBoxA (ssRNA)
RNA: GGCUCCUUGGCA
B2: binds [1].

B3: AaBoxA duplex (dsRNA) (dsRNA)
RNA 1: GGCUCCUUGGCA
RNA 2: GGCUCCUUGGCA
B3: binds [2].

B4: EcBoxA-BoxB (structured_RNA)
RNA: GCCGCGCCGCUGAGAAAAAGCGAAGCGGCACUGCUCUUUA
B4: binds (EcNusB wt).
